Assay results reported in patent US20200199202A1 (published 2020).

Assays:
NHP NPC1-C = NHP NPC1-C (Colobus guereza); experiment: BLI; pH 5.5
[1] = biological target: T1, soluble human NPC1 domain C protein (UniProt O15118 372-622); experiment: BLI; pH 7.5
T1 chain: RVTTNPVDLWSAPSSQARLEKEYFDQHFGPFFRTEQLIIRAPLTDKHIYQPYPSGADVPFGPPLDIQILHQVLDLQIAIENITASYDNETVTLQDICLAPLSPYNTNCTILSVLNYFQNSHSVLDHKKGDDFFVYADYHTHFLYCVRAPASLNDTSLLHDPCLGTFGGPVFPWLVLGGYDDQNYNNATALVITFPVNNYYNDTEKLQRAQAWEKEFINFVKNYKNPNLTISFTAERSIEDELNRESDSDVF

[2] = biological target: T1, soluble human NPC1 domain C protein; experiment: BLI; pH 5.5
[3] = biological target: T1, soluble human NPC1 domain C protein; experiment: BLI; pH 7.5

B1: 548 (antibody, V domains shown)
VH: EVQLQQSGAELVKPGASVKLSCTASGFNIKDTYMHWVKQRPEEGLEWIGRIDPADGNTEYVPKFQGKATITADTFSNTVYLQLSGLTSEDTAVYYCSRGYYWGQGTTLTVSS
VL: DIQMTQSPASLSASVGETVTITCRASENIYSYLAWYQQKQGKSPQLLVYNAKTLAEGVPSRFSGSGSGTQFSLKINSLQPEDFGIYYCQHHYGSPWAFGGGTKLEIK
For B1, which Kd (NHP NPC1-C) is on record?
Its Kd is under 1 pM.

B2: mAb 548 (anti-human NPC1 domain C monoclonal antibody) (antibody, V domains shown)
VH: EVQLQQSGAELVKPGASVKLSCTASGFNIKDTYMHWVKQRPEEGLEWIGRIDPADGNTEYVPKFQGKATITADTFSNTVYLQLSGLTSEDTAVYYCSRGYYWGQGTTLTVSS
VL: DIQMTQSPASLSASVGETVTITCRASENIYSYLAWYQQKQGKSPQLLVYNAKTLAEGVPSRFSGSGSGTQFSLKINSLQPEDFGIYYCQHHYGSPWAFGGGTKLEIK
With B2 as the binder, how does the Kd [1] read?
Its Kd is under 1 pM.

What about the Kd [2] of the same binder?
Its Kd is under 1 pM.

And the Kd [3]?
The Kd was under 1 pM.
